Experimental data published in patent publication US20120282643A1.

Biological target: sulfite reductase tagged with a C-terminal GFP S11 (SEQ ID NO: 16)
Assay: cell-based or functional assay

Split-CFP S1-10 (D19E, D21E, Y66W, H148D, T205S)
Final Fluorescence (Ident. A2): 4110 | Final Fluorescence (Ident. A3): 1990 | Final Fluorescence (Ident. A6): 5000 | Final Fluorescence (Ident. A8): 2360 | Final Fluorescence (Ident. A9): 4990 | Final Fluorescence (Ident. A10): 4930 | Final Fluorescence (Ident. B1): 4790 | Final Fluorescence (Ident. B2): 3260 | Final Fluorescence (Ident. B3): 2360 | Final Fluorescence (Ident. B4): 1760 | Final Fluorescence (Ident. B5): 2740 | Final Fluorescence (Ident. B6): 2950 | Final Fluorescence (Ident. C2): 2250 | Final Fluorescence (Ident. C3): 2200 | Final Fluorescence (Ident. C5): 2540 | Final Fluorescence (Ident. C9): 1830 | Final Fluorescence (Ident. D5): 2420 | Final Fluorescence (Ident. D9): 1340 | Final Fluorescence (Ident. D12): 3130 | Final Fluorescence (Ident. E1): 4830 | Final Fluorescence (Ident. E2): 1690 | Final Fluorescence (Ident. E3): 1980 | Final Fluorescence (Ident. E5): 1800 | Final Fluorescence (Ident. E6): 2560 | Final Fluorescence (Ident. F1): 4070 | Final Fluorescence (Ident. F2): 1800 | Final Fluorescence (Ident. F3): 2290 | Final Fluorescence (Ident. F4): 1540 | Final Fluorescence (Ident. F5): 2900 | Final Fluorescence (Ident. F7): 2850 | Final Fluorescence (Ident. F9): 2710 | Final Fluorescence (Ident. G1): 4400 | Final Fluorescence (Ident. G3): 2410 | Final Fluorescence (Ident. G6): 2580 | Final Fluorescence (Ident. G7): 2130 | Final Fluorescence (Ident. H1): 4140 | Final Fluorescence (Ident. H4): 2360 | Final Fluorescence (Ident. H7): 3870 | Final Fluorescence (Ident. H8): 2820 | Initial Rate (Ident. A2): 14100 | Initial Rate (Ident. A3): 8810 | Initial Rate (Ident. A6): 18800 | Initial Rate (Ident. A8): 11700 | Initial Rate (Ident. A9): 17700 | Initial Rate (Ident. A10): 16900 | Initial Rate (Ident. B1): 15700 | Initial Rate (Ident. B2): 11900 | Initial Rate (Ident. B3): 8260 | Initial Rate (Ident. B4): 9110 | Initial Rate (Ident. B5): 10300 | Initial Rate (Ident. B6): 10600 | Initial Rate (Ident. C2): 7890 | Initial Rate (Ident. C3): 7950 | Initial Rate (Ident. C5): 9490 | Initial Rate (Ident. C9): 7200 | Initial Rate (Ident. D5): 8850 | Initial Rate (Ident. D9): 7490 | Initial Rate (Ident. D12): 12000 | Initial Rate (Ident. E1): 11700 | Initial Rate (Ident. E2): 7780 | Initial Rate (Ident. E3): 6770 | Initial Rate (Ident. E5): 6370 | Initial Rate (Ident. E6): 9260 | Initial Rate (Ident. F1): 9890 | Initial Rate (Ident. F2): 6690 | Initial Rate (Ident. F3): 7600 | Initial Rate (Ident. F4): 7760 | Initial Rate (Ident. F5): 10200 | Initial Rate (Ident. F7): 10000 | Initial Rate (Ident. F9): 9770 | Initial Rate (Ident. G1): 11000 | Initial Rate (Ident. G3): 10800 | Initial Rate (Ident. G6): 11900 | Initial Rate (Ident. G7): 9680 | Initial Rate (Ident. H1): 10000 | Initial Rate (Ident. H4): 10400 | Initial Rate (Ident. H7): 12900 | Initial Rate (Ident. H8): 10900

Split-CFP S1-10 (D21N, Y66W, H148D, T205S) (from UniProt P42212 1-214)
Final Fluorescence (Ident. A12): 990 | Final Fluorescence (Ident. B12): 1790 | Initial Rate (Ident. A12): 3060 | Initial Rate (Ident. B12): 4900

Split-CFP S1-10 (D19E, D21N, Y66W, H148D, T205S)
Final Fluorescence (Ident. A7): 2550 | Final Fluorescence (Ident. C6): 1120 | Final Fluorescence (Ident. C7): 1730 | Final Fluorescence (Ident. C8): 1010 | Final Fluorescence (Ident. C10): 1720 | Final Fluorescence (Ident. D7): 744 | Final Fluorescence (Ident. D10): 1200 | Final Fluorescence (Ident. E8): 1140 | Final Fluorescence (Ident. G2): 1910 | Final Fluorescence (Ident. G8): 1420 | Final Fluorescence (Ident. G9): 1700 | Final Fluorescence (Ident. H3): 2130 | Final Fluorescence (Ident. H5): 2000 | Final Fluorescence (Ident. H9): 1340 | Initial Rate (Ident. A7): 8100 | Initial Rate (Ident. C6): 3590 | Initial Rate (Ident. C7): 6280 | Initial Rate (Ident. C8): 4550 | Initial Rate (Ident. C10): 6180 | Initial Rate (Ident. D7): 3120 | Initial Rate (Ident. D10): 4290 | Initial Rate (Ident. E8): 5330 | Initial Rate (Ident. G2): 3790 | Initial Rate (Ident. G8): 9440 | Initial Rate (Ident. G9): 7820 | Initial Rate (Ident. H3): 6870 | Initial Rate (Ident. H5): 5750 | Initial Rate (Ident. H9): 7800

Split-CFP S1-10 (D19E, D21N, Y66W, S99T, H148D, T205S)
Final Fluorescence (Ident. B9): 703 | Final Fluorescence (Ident. C12): 1740 | Initial Rate (Ident. B9): 2230 | Initial Rate (Ident. C12): 5120

Split-YFP S1-10 (S99F, T203Y, T205S) (from UniProt P42212 1-214)
Green Fluorescence (488/510) (clone G11): 7.47 | Ratio Yellow/Green Fluorescence (clone G11): 18.9 | Yellow Fluorescence (510/532) (clone G11): 141

Split-YFP S1-10 (T65G, S99F, T203Y, T205S) (from UniProt P42212 1-214)
Green Fluorescence (488/510) (clone E11): 4.51 | Ratio Yellow/Green Fluorescence (clone E11): 22.5 | Yellow Fluorescence (510/532) (clone E11): 101

Split-YFP S1-10 (T203Y, D210V) (from UniProt P42212 1-214)
Green Fluorescence (488/510) (clone E10): 21.4 | Ratio Yellow/Green Fluorescence (clone E10): 7.33 | Yellow Fluorescence (510/532) (clone E10): 157

Split-YFP S1-10 (T65A, T203Y, T205S) (from UniProt P42212 1-214)
Green Fluorescence (488/510) (clone C4): 7.17 | Ratio Yellow/Green Fluorescence (clone C4): 10.6 | Yellow Fluorescence (510/532) (clone C4): 76.2

Split-CFP S1-10 (V16I, D21E, Y66W, T205S) (from UniProt P42212 1-214)
Final Fluorescence (Ident. E12): 1070 | Initial Rate (Ident. E12): 2040

Split-YFP S1-10 (T203Y, Q204H) (from UniProt P42212 1-214)
Green Fluorescence (488/510) (clone F8): 20.2 | Ratio Yellow/Green Fluorescence (clone F8): 8.16 | Yellow Fluorescence (510/532) (clone F8): 165

Split-YFP S1-10 (T65G, T203Y) (from UniProt P42212 1-214)
Green Fluorescence (488/510) (clone A9): 4.5 | Green Fluorescence (488/510) (clone B2): 5.85 | Green Fluorescence (488/510) (clone E7): 6.91 | Ratio Yellow/Green Fluorescence (clone A9): 24.3 | Ratio Yellow/Green Fluorescence (clone B2): 19.5 | Ratio Yellow/Green Fluorescence (clone E7): 17 | Yellow Fluorescence (510/532) (clone A9): 109 | Yellow Fluorescence (510/532) (clone B2): 114 | Yellow Fluorescence (510/532) (clone E7): 117

Split-YFP S1-10 (T203Y, T205A) (from UniProt P42212 1-214)
Green Fluorescence (488/510) (clone A3): 1.8 | Ratio Yellow/Green Fluorescence (clone A3): 42 | Yellow Fluorescence (510/532) (clone A3): 75.7

Split-YFP S1-10 (T203Y, Q204E) (from UniProt P42212 1-214)
Green Fluorescence (488/510) (clone C6): 5.1 | Ratio Yellow/Green Fluorescence (clone C6): 20 | Yellow Fluorescence (510/532) (clone C6): 102

Split-CFP S1-10 (V16I, D19E, D21E, Y66W, H148D, T205S)
Final Fluorescence (Ident. B8): 1640 | Final Fluorescence (Ident. B10): 3340 | Final Fluorescence (Ident. D2): 3360 | Initial Rate (Ident. B8): 8930 | Initial Rate (Ident. B10): 11500 | Initial Rate (Ident. D2): 11500

Split-CFP S1-10 (Y66W, T205S) (from UniProt P42212 1-214)
Final Fluorescence (Ident. G12): 382 | Final Fluorescence (Ident. H12): 425 | Initial Rate (Ident. G12): 3740 | Initial Rate (Ident. H12): 3600

Split-CFP S1-10 (D21N, Y66W, T205S) (from UniProt P42212 1-214)
Final Fluorescence (Ident. F12): 868 | Initial Rate (Ident. F12): 1980

Split-YFP S1-10 (T65G, P192H, T203Y, T205S) (from UniProt P42212 1-214)
Green Fluorescence (488/510) (clone D3): 7.15 | Ratio Yellow/Green Fluorescence (clone D3): 17.9 | Yellow Fluorescence (510/532) (clone D3): 128

Split-YFP S1-10 (C70S, T203Y) (from UniProt P42212 1-214)
Green Fluorescence (488/510) (clone F3): 10.5 | Ratio Yellow/Green Fluorescence (clone F3): 11.4 | Yellow Fluorescence (510/532) (clone F3): 120

Split-CFP S1-10 (D19E, D21E, Y66W, H148D, T205S, S208L)
Final Fluorescence (Ident. C4): 2270 | Final Fluorescence (Ident. G5): 1360 | Initial Rate (Ident. C4): 7790 | Initial Rate (Ident. G5): 6070

Split-CFP S1-10 (D19E, Y66W, H148D, T205S) (from UniProt P42212 1-214)
Final Fluorescence (Ident. A5): 2860 | Initial Rate (Ident. A5): 9770

Split-YFP S1-10 (R80K, T203Y) (from UniProt P42212 1-214)
Green Fluorescence (488/510) (clone H1): 7.41 | Ratio Yellow/Green Fluorescence (clone H1): 18.7 | Yellow Fluorescence (510/532) (clone H1): 138

Split-CFP plate clone F6 (D19E, D21E, H148D, T205S) (from UniProt P42212 1-214)
Final Fluorescence (Ident. F6): 2910 | Initial Rate (Ident. F6): 10900

Split-CFP S1-10 (D21E, Y66W, H148D, T205S) (from UniProt P42212 1-214)
Final Fluorescence (Ident. G4): 5100 | Initial Rate (Ident. G4): 13000

Split-CFP S1-10 (Y66W, H148D, T205S) (from UniProt P42212 1-214)
Final Fluorescence (Ident. D1): 8860 | Final Fluorescence (Ident. D4): 3740 | Final Fluorescence (Ident. D6): 4100 | Final Fluorescence (Ident. D8): 3750 | Final Fluorescence (Ident. E4): 3280 | Final Fluorescence (Ident. F8): 1310 | Final Fluorescence (Ident. H2): 6570 | Initial Rate (Ident. D1): 14500 | Initial Rate (Ident. D4): 7990 | Initial Rate (Ident. D6): 10000 | Initial Rate (Ident. D8): 8440 | Initial Rate (Ident. E4): 7280 | Initial Rate (Ident. F8): 3820 | Initial Rate (Ident. H2): 9060

Split-YFP S1-10 (T9N, T65L, T203Y, T205S) (from UniProt P42212 1-214)
Green Fluorescence (488/510) (clone C5): 5.07 | Ratio Yellow/Green Fluorescence (clone C5): 20.9 | Yellow Fluorescence (510/532) (clone C5): 106
